Data on one molecule can be found in paper PMC11143371 (Nature Communications, 2024).

In this assay the target is T1, RV3 preF OnlyEcto (Human respirovirus 3 (HPIV3), strain …, stabilised).
T1 construct: also called RV3 preF lead candidate; source: Expi293F, transfected, purified (Capto Q Impress, SEC)
As to the kind of experiment: BLI; kinetic Octet; […] (0-900 s), […] (900-1800 s). The conditions noted are these: both partners purified. In general terms: Biolayer interferometry detects binding as a change in optical thickness at a sensor tip.

B1: single-domain antibody (sdAb) 4C06 (VHH)
VHH: EVQLVESGGGLVQPGGSLRLSCSASGSLSTIKALGWYRRAPGRERELVASITSAGETNYADSAKGRFTVSTDNAKNTVDLRMNSLKPEDTAVYYCYAESFVLNIYWGQGTQVTVSS
notes: also called VHH 4C06
As for B1, the binding result is “binds”.
